Reference: PMC9687425, “Global Regulator AdpA_1075 Regulates Morphological Differentiation and Ansamitocin Production in Actinosynnema pretiosum subsp. auranticum”

T1: AdpA_1075 (Actinosynnema pretiosum subsp. …, UniProt A0A290Z1C2 1-322)
T1 sequence: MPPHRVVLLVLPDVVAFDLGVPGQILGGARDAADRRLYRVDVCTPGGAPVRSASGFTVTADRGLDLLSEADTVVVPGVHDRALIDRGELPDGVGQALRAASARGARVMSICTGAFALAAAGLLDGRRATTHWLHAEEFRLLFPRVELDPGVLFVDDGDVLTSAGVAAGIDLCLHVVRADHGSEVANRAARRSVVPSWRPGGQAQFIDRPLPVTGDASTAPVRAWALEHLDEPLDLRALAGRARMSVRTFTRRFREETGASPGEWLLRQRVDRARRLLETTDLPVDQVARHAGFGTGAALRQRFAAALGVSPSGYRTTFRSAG

B1: Pasm28 (dsDNA)
DNA 1: CGCAGTGGCCCGAACGGGTCCGCAGTGGCCCGAACGGGTCCGCAGTGGCCCGAACGGGTC
DNA 2: GACCCGTTCGGGCCACTGCGGACCCGTTCGGGCCACTGCGGACCCGTTCGGGCCACTGCG
B2: PssgA (dsDNA)
DNA 1: GTGTTGGCCGGAACCACGGTGTTGGCCGGAACCACGGTGTTGGCCGGAACCACG
DNA 2: CGTGGTTCCGGCCAACACCGTGGTTCCGGCCAACACCGTGGTTCCGGCCAACAC

Key:
AdpA_1075 [1] = molecular target: T1, AdpA_1075; test: EMSA; shifted with 1000 nM protein; excess unlabeled specific DNA competes; Beyotime Chemiluminescent EMSA Kit (buffer, salt and pH not stated); 20 ng biotin-labeled probe, 10 min at room temperature, 5% polyacrylamide gel; settings: protein: recombinant; tags: His6 (pET-28a NdeI/HindIII; the reverse primer keeps the stop codon, so N-terminal tag; named AdpA_1075-His6 in the text); chain copies: 2; label: 5' biotin on strand 1; blunt
AdpA_1075 [2] = molecular target: T1, AdpA_1075; test: EMSA; protein concentration-dependent shift; excess unlabeled specific DNA competes; Beyotime Chemiluminescent EMSA Kit (buffer, salt and pH not stated); 20 ng biotin-labeled probe, 10 min at room temperature, 5% polyacrylamide gel; settings: protein: recombinant; tags: His6 (pET-28a NdeI/HindIII; the reverse primer keeps the stop codon, so N-terminal tag; named AdpA_1075-His6 in the text); chain copies: 2; label: 5' biotin on strand 1; blunt

Binder	binding result (AdpA_1075 [1])	binding result (AdpA_1075 [2])
B1	binds	–
B2	–	binds
